Results reported in ChEMBL document CHEMBL1122856, “Study on the inhibition of adenosine deaminase” (J Med Chem, 1985).

Substrate: Cc1c([C@@H](C)O)ncn1C1O[C@H](CO)[C@@H](O)[C@H]1O
Description: Ability to inhibit the deamination of adenosine by calf intestine adenosine deaminase expressed as Km

B1: Adenosine deaminase (Bos taurus), P56658 (protein)
chain: MAQTPAFNKPKVELHVHLDGAIKPETILYYGRKRGIALPADTPEELQNIIGMDKPLSLPEFLAKFDYYMPAIAGCREAVKRIAYEFVEMKAKDGVVYVEVRYSPHLLANSKVEPIPWNQAEGDLTPDEVVSLVNQGLQEGERDFGVKVRSILCCMRHQPSWSSEVVELCKKYREQTVVAIDLAGDETIEGSSLFPGHVKAYAEAVKSGVHRTVHAGEVGSANVVKEAVDTLKTERLGHGYHTLEDATLYNRLRQENMHFEVCPWSSYLTGAWKPDTEHPVVRFKNDQVNYSLNTDDPLIFKSTLDTDYQMTKNEMGFTEEEFKRLNINAAKSSFLPEDEKKELLDLLYKAYGMPSPASAEQCL
With B1 the Km was 39 µM.
